The values below come from patent publication US20120028913A1 (BIOKINE THERAPEUTICS, published 2012).

Bridges are numbered along the chain shown (N, C = ends). Where no end group is shown, it is not given here. The star is where a group is joined. Biotin = O=C1N[C@H]2[C@H](CS[C@H]2CCCCC(=O)*)N1

The target in test [1] is T1, Human MCP-1 (MCAF) (human, UniProt P13500 24-99).
T1 construct: bought recombinant chemokine
Briefly: Bound chemokines (at least); screen vs control proteins.

Test [2] deals with T2, human Eotaxin (human, UniProt P51671 24-97).
T2 construct: bought recombinant chemokine
The description is as above.

For test [3], the target named is T3, human MIG (human, UniProt Q07325 23-125).
T3 sequence (looked up): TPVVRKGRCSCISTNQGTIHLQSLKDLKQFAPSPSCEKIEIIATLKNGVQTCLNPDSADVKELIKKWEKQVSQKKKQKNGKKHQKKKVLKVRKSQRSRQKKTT
Briefly: cell-based or functional assay.

The target of test [4] is T4, human IL-8, (72 amino acids) (human, UniProt P10145 28-99).
T4 sequence (looked up): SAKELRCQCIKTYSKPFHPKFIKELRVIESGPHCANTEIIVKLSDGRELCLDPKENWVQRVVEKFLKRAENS
Description: cell-based or functional assay.

In test [5] the target is T2, human Eotaxin. Briefly: cell-based or functional assay.
Test [6] has as its target T4, human IL-8, (72 amino acids). Description: Bound chemokines (at least); screen vs control proteins.
The target is the same in test [7]. The test is described as above. The source holds these as a separate data set.
The target of test [8] is T3, human MIG. Description: ELISA on chemokine-coated plates, fold over control proteins (FIG. 3). As for the experimental part: (§1) NUNC-Immuno maxisorp plates (Cat. No. 4-42404) were coated with the appropriate chemokine (0.1 ml/well, 0.1-1.0 μg/ml in 0.1 M NaHCO₃, pH 8.6), overnight at 4° C. The plates were then blocked with 0.2 ml/well of blocking buffer (5 mg/ml BSA in 0.1 NaHCO₃). Control wells were treated with blocking buffer alone, with no addition of target protein (chemokine). The plates were washed 6 times with PBST (0.1% Tween 20 in PBS), followed by incubation for 45 minutes at room temperature with 10-fold serial dilutions of individual synthetic peptides (10 pg-10 μg) with 1% BSA (PBST-BSA)/well. After the plates were washed 6 times with PBST, the bound peptides were probed by HRP-SA Conjugate, diluted 1:10,000 to 1:20,000 in PBST-BSA, 0.1 ml/well for 45 minutes at room temperature. The target-bound synthetic peptides probed with HRP-SA were quantified by DAKO TMB one-step substrate system, followed by the addition of stop solution, HCl—H₂SO₄ mixture (0.1 ml/well) ON HCl, 3N H₂SO₄). The results were analyzed by ELISA reader at OD₄₅₀.
(§2) As discussed above, the level of binding was calculated by comparing binding of the peptides to the chemokines with peptide binding to controls. Level of control binding was defined as level 1 (up to a one-fold increase in binding). This control binding level is illustrated in the Figure as a dashed line.
For orientation: ELISA stands for enzyme-linked immunosorbent assay.

The target of test [9] is T5, Human SDF-1α (human, UniProt P48061-2 22-89).
T5 construct: bought recombinant chemokine; also called SDF-1 alpha
The test is described as above. How it is done: as §1, §2

The target of test [10] is T1, Human MCP-1 (MCAF). The description is as above. How it is done:
as §1, §2

Test [11] deals with T2, human Eotaxin. Described as above. How it is done: as §1, §2
The target of test [12] is T4, human IL-8, (72 amino acids). Described as above. As for the experimental part:
as §1, §2

In test [13] the target is T5, Human SDF-1α. Description: Bound chemokines (at least); screen vs control proteins.
The target in test [14] is T2, human Eotaxin. Briefly: peptide-containing carriers, binding vs control proteins (FIG. 1).
The target of test [15] is T1, Human MCP-1 (MCAF). Briefly: Bound chemokines (at least); screen vs control proteins. The source holds these as a separate data set.
Test [16] has as its target T3, human MIG. The test is described as above.

T2 sequence (P51671 24-97 limits assumed): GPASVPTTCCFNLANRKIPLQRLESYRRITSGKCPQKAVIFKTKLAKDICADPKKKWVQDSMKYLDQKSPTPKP
T1 sequence (P13500 24-99 limits assumed): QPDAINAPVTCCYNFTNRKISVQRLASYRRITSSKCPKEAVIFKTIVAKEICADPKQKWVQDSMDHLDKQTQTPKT
T5 sequence (P48061 22-89 limits assumed): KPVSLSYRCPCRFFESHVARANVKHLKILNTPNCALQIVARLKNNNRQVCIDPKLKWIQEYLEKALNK

Consider ESDLTHALHWLG [BKT-P51], for which the binding result with Human MCP-1 (MCAF) [1] is given as “binds”.
As to SVQTRPLFHSHF [BKT-P34], the binding result in the test with human Eotaxin [2] is listed as “binds”.
For HHFHLPKLRPPVGGGSK(Biotin)G [BKT-P45], the results for the “Level of Antagonistic Effect (T cell arrest under laminar flow on VCAM-1 plus chemokine)” value (“Level of Antagonistic Effect” for short) (with human MIG [3]; in [4]) were 20% and 100%, respectively.
Take YATQHNWRLKHE [BKT-P53]: the binding result in the test with Human MCP-1 (MCAF) [1] is “binds”.
As to SAGHIHEAHRPLGGGSK(Biotin)G [BKT-P39], the “Level of Antagonistic Effect” value with human Eotaxin [5] was 100%.
Take SAISDHRAHRSH [BKT-P40]: in [6], the binding result is given as “binds”.
As to LLADTTHHRPWP (the carrier is not described) [BKT-P37], in test [7], the binding result is reported as “binds”.

B1: BKT-P18 (peptide)
peptide: ACKESATYFCGGGSK(Biotin)G
modifications: disulfide 2-10 (inferred)
notes: general synthetic cyclic format applied; also called control peptide
Take B1: the binding result (in the test with human MIG [8]; in the test with Human SDF-1α [9]; in the test with Human MCP-1 (MCAF) [10]; in the test with human Eotaxin [11]; in [12]) was “no binding” each time.
With WSAHIVPYSHKP [BKT-P52], the binding result with Human MCP-1 (MCAF) [1] is given as “binds”.
The same measure, in the same setting: to HSACHASLKHRC (not fully specified (bridges); cysteine pairing not given here) [BKT-P49] belongs “binds”.
Still for that read-out and setting: to AHSLKSITNHGL [BKT-P44] belongs “binds”.
For the molecule ACHASLKHRC (not fully specified (bridges); cysteine pairing not given here) [BKT-P48], in the test with Human MCP-1 (MCAF) [1], the binding result is recorded as “binds”.
For CHHNLSWEC (not fully specified (bridges); cysteine pairing not given here) [BKT-P56], in the test with Human SDF-1α [13], the binding result is listed as “binds”.
With VHTSLLQKHPLP [BKT-P26], the binding result with Human MCP-1 (MCAF) [1] is given as “binds”.

B2: BKT-P22/38 (peptide)
peptide: LGFDPTSTRFYT
notes: the carrier is not described; also called BKT-P38
With B2, the binding result with human Eotaxin [14] is on record as “binds”.
As for HHTWDTRIWQAF [BKT-P55], the binding result in the test with Human MCP-1 (MCAF) [15] is recorded as “binds”.
As for SIPSHSIHSAKAGGGSK(Biotin)G [BKT-P2], the “Level of Antagonistic Effect” value in the test with human MIG [3] was 50%.
Take LDYPIPQTVLHH [BKT-P46]: in the test with Human MCP-1 (MCAF) [15], the binding result is “binds”.
For GVHKHFYSRWLG [BKT-P33], the binding result with human Eotaxin [2] was “binds”.
For the molecule TRLVPSRYYHHP [BKT-P47], the binding result with Human MCP-1 (MCAF) [15] is “binds”.
The same measure, in the same setting: as for GDFNSGHHTTTR [BKT-P27], the entry is “binds”.
In the case of CAHLSPHKC (not fully specified (bridges); cysteine pairing not given here) [BKT-P50], in the test with human MIG [16], the binding result is “binds”.
